According to patent US12612459B2, “Methods of identifying agents that block MCD28 cleavage by MMPS” (BIOND BIOLOGICS LTD., priority 2019, dated 2026):
Where no end group is shown, it is not given here.

Experiments:
MMP-13 [1] = molecular target: T1, MMP-13 (Homo sapiens, UniProt P45452); assay: Fluorogenic assay: cleavage of quenched fluorogenic human CD28 stalk region peptide by MMP-13; assay type: biochemical; settings: increasing dose of inhibitor; FIG. 1E
Method: (§1) FIGS. 1A-1E. (1A-1E) Line graphs of fluorescence from quenched fluorogenic peptides of the human CD28 stalk region incubated with (1A) various recombinant human sheddases, (1B) varying concentrations of rhMMP-2, (1C) MMP-2 and various concentrations of the MMP-2 specific inhibitor ARP-100, (1D) varying concentrations of rhMMP-13, or (1E) MMP-13 and broad MMP inhibitor TMI-1.
(§2) Matrix Metalloproteinases and ADAM's—Commercial recombinant human metalloproteinases MMP-1 (Cat. No. AS-55575), MMP-9 (Cat. No. AS-55576), MMP-10 (Cat. No. AS-72067), MMP-12 (Cat. No. AS-55525) and MMP-13 (Cat. No. AS-72257) are from AnaSpec. […]
(§3) Fluorogenic Assay—The assay was performed with indicated MMP's (10 or 30 ng) in 50 mM Tris, 10 mM CaCl2), 150 mM NaCl, 0.05% Brij-35, pH 7.5 or ADAM10/ADAM17 (5 μg/mL) in 25 mM Tris, 2.5 mM ZnCl2 and 0.005% Brij-35, pH 9. Cleavage of the fluorogenic substrate (10 μM) was measured at Ex340/Em490 nm using Biotek Synergy H1 spectrofluorometer.
(§4) It has been hypothesized that ADAM-10 and ADAM-17 may play a role in this shedding. […] When intact, the fluorochrome on the peptide is quenched and no fluorescence is measured. Cleavage of the peptide allows the fluorochrome to dissociate from the quencher and fluorescence is measurable by a dedicated reader. […] The peptide alone without any sheddase added was used as a control to normalize the readings. […]

MMP-2 [2] = molecular target: T2, MMP-2 (Homo sapiens, UniProt P08253); assay: Fluorogenic assay: cleavage of quenched fluorogenic human CD28 stalk region peptide by MMP-2; assay type: biochemical; settings: increasing dose of inhibitor; FIG. 1C
T2 construct: purchased AnaSpec and R&D Systems AS-72005 / 902-MP
T2 sequence (P08253 110-660): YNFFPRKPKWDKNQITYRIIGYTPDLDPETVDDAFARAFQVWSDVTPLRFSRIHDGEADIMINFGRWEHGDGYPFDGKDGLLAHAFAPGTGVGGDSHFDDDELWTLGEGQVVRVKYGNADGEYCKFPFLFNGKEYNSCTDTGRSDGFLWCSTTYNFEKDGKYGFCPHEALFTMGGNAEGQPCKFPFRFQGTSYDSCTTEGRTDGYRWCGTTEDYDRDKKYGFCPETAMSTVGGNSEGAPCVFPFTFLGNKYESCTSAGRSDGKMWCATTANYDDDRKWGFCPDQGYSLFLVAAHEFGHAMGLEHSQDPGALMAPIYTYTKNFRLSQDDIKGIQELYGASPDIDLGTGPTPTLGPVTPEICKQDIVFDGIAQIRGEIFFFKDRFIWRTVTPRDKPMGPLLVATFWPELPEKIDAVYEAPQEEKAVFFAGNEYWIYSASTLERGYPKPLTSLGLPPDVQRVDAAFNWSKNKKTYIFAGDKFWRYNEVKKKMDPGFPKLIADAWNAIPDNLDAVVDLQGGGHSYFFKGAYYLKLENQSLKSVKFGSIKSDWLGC
Method: as §1, §2, §3, §4

MMP-2 [3] = molecular target: T2, MMP-2; assay: In-vitro cleavage assay of c-Myc tagged, biotinylated dimeric CD28 stalk region peptide by rhMMP-2 (ELISA detection of intact peptide); assay type: biochemical; settings: 25 ng and 50 ng MMP-2, 5-hour incubation; FIG. 4C
MMP-13 [4] = molecular target: T1, MMP-13; assay: In-vitro cleavage assay of c-Myc tagged, biotinylated dimeric CD28 stalk region peptide by rhMMP-13 (ELISA detection of intact peptide); assay type: biochemical; settings: 25 ng and 50 ng MMP-13, 5-hour incubation; FIG. 4D
[5] = system: chronically stimulated human PBMCs; settings: previously shown in WO2019/175885; dose dependent; cited from earlier work
human CD28 stalk region = molecular target: T3, human CD28 stalk region (Homo sapiens, UniProt P10747); assay: Binding to human CD28 stalk region dimeric peptide by ELISA; settings: for binding to human CD28 stalk region sequence: ELISA, serial dilution of VHH clones, FIG. 5; for specific binding to MMP cleavage site of human CD28: WT versus L145K stalk region dimeric peptides, VHH 0.2-5 μg/mL, FIG. 7
T3 construct: human CD28 stalk region (His134-Pro152)

## CC#CCOc1ccc(S(=O)(=O)N2CCSC(C)(C)[C@@H]2C(=O)NO)cc1 [TMI-1]
MMP-13 [1]
  cleavage of the CD28 stalk fluorogenic peptide by MMP-13: cleavage decreased in a dose dependent manner

## CC(C)ON(CC(=O)NO)S(=O)(=O)c1ccc(-c2ccccc2)cc1 [ARP-100]
MMP-2 [2]
  cleavage of the CD28 stalk fluorogenic peptide by MMP-2: cleavage decreased in a dose dependent manner

## mutated peptide: cMyc tagged, biotinylated dimeric CD28 stalk region peptide with L145K, EQKLISEEDLGGGGHVKGKHLCPSPKFPGPSKP (SEQ ID NO: 19) (EQKLISEEDLGGGGHVKGKHLCPSPKFPGPSKP-biotin; also: dimeric peptide) [reference compound]
MMP-2 [3]
  peptide cleaved by MMP-2: < 5%
MMP-13 [4]
  peptide cleaved by MMP-13: < 5%

## TAPI
[5]
  levels of sCD28 produced by chronically stimulated human PBMCs: diminish levels of sCD28

B1: clone 4A1: llama-derived VHH single domain antibody binding the human CD28 stalk region, SEQ ID NO: 31, C-terminal His-tag (protein)
VHH: QVQLVESGGGLVQAGGSLRLSCAASGSIFSINAMGWYRQAPGKQRERVAAITSGGSTNYADSVKGRFTISRDNAKNTVYLQMNNLEPRDAGVYYCVVDLYGEDYWIWGQGTQVTVSSAAAHHHHHH
modifications: C-terminal His-tag
Human CD28 stalk region
  binding to human CD28 stalk region sequence: specifically bind the stalk region of human CD28
  specific binding to MMP cleavage site of human CD28: bind specifically to MMP cleavage site of human CD28

B2: clone 4A4: llama-derived VHH single domain antibody binding the human CD28 stalk region, SEQ ID NO: 30, C-terminal His-tag (protein)
VHH: EVQLVESGGGLVQAGGSLRLSCAASGSLFSINAMAWYRQAPGKQRELVAAITSSGSTNYANSVKGRFTVSRDNAKNTMYLQMNSLKPEDTAVYYCVVDEYGSDYWIWGQGTQVTVSSAAAHHHHHH
modifications: C-terminal His-tag
Human CD28 stalk region
  binding to human CD28 stalk region sequence: specifically bind the stalk region of human CD28
  specific binding to MMP cleavage site of human CD28: bind specifically to MMP cleavage site of human CD28
